Data reported in patent publication US20220064329A1 (Novo Nordisk, published 2022).
Where a chain is given by its changes, count along the chain named. Names may count otherwise.

T1: recombinant human activated Factor VII (FVIIa) (human, UniProt P08709 61-212; P08709 213-466, ten glutamate residues of the Gla domain may be gamma-carboxylated)
T1 construct: chains tethered by a disulfide bond; also called Factor VIIa; rFVIIa
T1 sequence 1: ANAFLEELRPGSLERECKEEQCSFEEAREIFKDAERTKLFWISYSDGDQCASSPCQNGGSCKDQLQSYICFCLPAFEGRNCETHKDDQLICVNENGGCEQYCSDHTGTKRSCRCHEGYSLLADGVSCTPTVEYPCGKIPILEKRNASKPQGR
T1 sequence 2: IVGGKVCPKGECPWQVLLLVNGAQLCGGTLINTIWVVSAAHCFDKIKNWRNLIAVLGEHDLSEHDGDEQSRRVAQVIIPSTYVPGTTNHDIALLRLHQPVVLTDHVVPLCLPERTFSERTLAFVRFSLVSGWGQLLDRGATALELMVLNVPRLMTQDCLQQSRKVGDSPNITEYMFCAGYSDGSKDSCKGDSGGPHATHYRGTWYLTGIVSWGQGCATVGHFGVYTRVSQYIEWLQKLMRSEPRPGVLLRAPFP

B1: VH SEQ ID NO 562 / VL SEQ ID NO 382 (antibody, IgG4, V domains shown)
VH: QVQLQESGPGLVKPSDTLSLTCAVSGYSISSDSAWSWIRQPPGKGLEWIGYIQYSGSTNYNPSLKSRVTMSRDTSKNQFSLKLSSVTALDTAVYYCARSVNYYGNSFAVGPWGQGTLVTVSS
VL: EIVLTQSPATLSLSPGERATLSCRASQGLSDYLHWYQQKPGEAPRLLIKYASQPATGIPARFSGSGSGTDFTLTISSLEPEDFAVYYCQNGHSFPLTFGQGTKLEIK
notes: humanized 11F2; IgG4 S228P/kappa
B2: VH SEQ ID NO 570 / VL SEQ ID NO 478 (antibody, IgG4, V domains shown)
VH: B1 VH with L89A
VL: B1 VL with L29V, E42Q, N90Q
notes: as for B1
B3: VH SEQ ID NO 570 / VL SEQ ID NO 398 (antibody, IgG4, V domains shown)
VH: B1 VH with L89A
VL: B1 VL with L29V, H34A, A51T
notes: as for B1
B4: VH SEQ ID NO 562 / VL SEQ ID NO 414 (antibody, IgG4, V domains shown)
VH: B1 VH
VL: B1 VL with L29V, H34A, E42Q
notes: as for B1
B5: VH SEQ ID NO 562 / VL SEQ ID NO 390 (antibody, IgG4, V domains shown)
VH: B1 VH
VL: B1 VL with L29V, H34A
notes: as for B1
B6: VH SEQ ID NO 570 / VL SEQ ID NO 486 (antibody, IgG4, V domains shown)
VH: B1 VH with L89A
VL: B1 VL with L29V, E42Q, A84G
notes: as for B1
B7: VH SEQ ID NO 570 / VL SEQ ID NO 390 (antibody, IgG4, V domains shown)
VH: B1 VH with L89A
VL: B1 VL with L29V, H34A
notes: as for B1
B8: VH SEQ ID NO 570 / VL SEQ ID NO 446 (antibody, IgG4, V domains shown)
VH: B1 VH with L89A
VL: B1 VL with L29V, H34A, E42Q, A51T
notes: as for B1
B9: VH SEQ ID NO 570 / VL SEQ ID NO 494 (antibody, IgG4, V domains shown)
VH: B1 VH with L89A
VL: B1 VL with L29V, E42Q, F83V
notes: as for B1
B10: VH SEQ ID NO 570 / VL SEQ ID NO 334 (antibody, IgG4, V domains shown)
VH: B1 VH with L89A
VL: B1 VL with L29I, E42Q
notes: as for B1
B11: VH SEQ ID NO 578 / VL SEQ ID NO 382 (antibody, IgG4, V domains shown)
VH: B1 VH with R72V
VL: B1 VL
notes: as for B1
B12: VH SEQ ID NO 562 / VL SEQ ID NO 406 (antibody, IgG4, V domains shown)
VH: B1 VH
VL: B1 VL with L29V, H34A, E42Q, Q100A
notes: as for B1
B13: VH SEQ ID NO 570 / VL SEQ ID NO 454 (antibody, IgG4, V domains shown)
VH: B1 VH with L89A
VL: B1 VL with L29V
notes: as for B1
B14: VH SEQ ID NO 562 / VL SEQ ID NO 438 (antibody, IgG4, V domains shown)
VH: B1 VH
VL: B1 VL with L29V, H34A, E42Q, F83V
notes: as for B1
B15: VH SEQ ID NO 578 / VL SEQ ID NO 326 (antibody, IgG4, V domains shown)
VH: B1 VH with R72V
VL: B1 VL with L29I, A51T, A84G, Q100A, I106L
notes: as for B1
B16: VH SEQ ID NO 570 / VL SEQ ID NO 342 (antibody, IgG4, V domains shown)
VH: B1 VH with L89A
VL: B1 VL with L29I, E42Q, A51T, T69R, Q100A, I106L
notes: as for B1
B17: VH SEQ ID NO 570 / VL SEQ ID NO 318 (antibody, IgG4, V domains shown)
VH: B1 VH with L89A
VL: B1 VL with L29I, A51T
notes: as for B1
B18: VH SEQ ID NO 570 / VL SEQ ID NO 438 (antibody, IgG4, V domains shown)
VH: B1 VH with L89A
VL: B1 VL with L29V, H34A, E42Q, F83V
notes: as for B1
B19: VH SEQ ID NO 562 / VL SEQ ID NO 462 (antibody, IgG4, V domains shown)
VH: B1 VH
VL: B1 VL with L29V, E42Q, Q100A
notes: as for B1
B20: VH SEQ ID NO 578 / VL SEQ ID NO 350 (antibody, IgG4, V domains shown)
VH: B1 VH with R72V
VL: B1 VL with L29I, E42Q, A51T, Q100A, I106L
notes: as for B1
B21: VH SEQ ID NO 562 / VL SEQ ID NO 454 (antibody, IgG4, V domains shown)
VH: B1 VH
VL: B1 VL with L29V
notes: as for B1
B22: VH SEQ ID NO 570 / VL SEQ ID NO 414 (antibody, IgG4, V domains shown)
VH: B1 VH with L89A
VL: B1 VL with L29V, H34A, E42Q
notes: as for B1
B23: VH SEQ ID NO 578 / VL SEQ ID NO 318 (antibody, IgG4, V domains shown)
VH: B1 VH with R72V
VL: B1 VL with L29I, A51T
notes: as for B1
B24: VH SEQ ID NO 570 / VL SEQ ID NO 430 (antibody, IgG4, V domains shown)
VH: B1 VH with L89A
VL: B1 VL with L29V, H34A, E42Q, A84G
notes: as for B1
B25: VH SEQ ID NO 570 / VL SEQ ID NO 502 (antibody, IgG4, V domains shown)
VH: B1 VH with L89A
VL: B1 VL with L29V, E42Q, A51T
notes: as for B1
B26: VH SEQ ID NO 570 / VL SEQ ID NO 462 (antibody, IgG4, V domains shown)
VH: B1 VH with L89A
VL: B1 VL with L29V, E42Q, Q100A
notes: as for B1
B27: VH SEQ ID NO 570 / VL SEQ ID NO 358 (antibody, IgG4, V domains shown)
VH: B1 VH with L89A
VL: B1 VL with L29I, E42Q, A51T
notes: as for B1
B28: VH SEQ ID NO 578 / VL SEQ ID NO 334 (antibody, IgG4, V domains shown)
VH: B1 VH with R72V
VL: B1 VL with L29I, E42Q
notes: as for B1
B29: VH SEQ ID NO 562 / VL SEQ ID NO 422 (antibody, IgG4, V domains shown)
VH: B1 VH
VL: B1 VL with L29V, H34A, E42Q, N90Q
notes: as for B1
B30: VH SEQ ID NO 570 / VL SEQ ID NO 326 (antibody, IgG4, V domains shown)
VH: B1 VH with L89A
VL: B1 VL with L29I, A51T, A84G, Q100A, I106L
notes: as for B1
B31: VH SEQ ID NO 578 / VL SEQ ID NO 342 (antibody, IgG4, V domains shown)
VH: B1 VH with R72V
VL: B1 VL with L29I, E42Q, A51T, T69R, Q100A, I106L
notes: as for B1
B32: VH SEQ ID NO 570 / VL SEQ ID NO 382 (antibody, IgG4, V domains shown)
VH: B1 VH with L89A
VL: B1 VL
notes: as for B1
B33: VH SEQ ID NO 570 / VL SEQ ID NO 406 (antibody, IgG4, V domains shown)
VH: B1 VH with L89A
VL: B1 VL with L29V, H34A, E42Q, Q100A
notes: as for B1
B34: VH SEQ ID NO 570 / VL SEQ ID NO 470 (antibody, IgG4, V domains shown)
VH: B1 VH with L89A
VL: B1 VL with L29V, E42Q
notes: as for B1
B35: VH SEQ ID NO 578 / VL SEQ ID NO 358 (antibody, IgG4, V domains shown)
VH: B1 VH with R72V
VL: B1 VL with L29I, E42Q, A51T
notes: as for B1
B36: VH SEQ ID NO 570 / VL SEQ ID NO 310 (antibody, IgG4, V domains shown)
VH: B1 VH with L89A
VL: B1 VL with L29I, H34A, E42Q
notes: as for B1
B37: VH SEQ ID NO 562 / VL SEQ ID NO 478 (antibody, IgG4, V domains shown)
VH: B1 VH
VL: B1 VL with L29V, E42Q, N90Q
notes: as for B1
B38: VH SEQ ID NO 570 / VL SEQ ID NO 366 (antibody, IgG4, V domains shown)
VH: B1 VH with L89A
VL: B1 VL with H34A
notes: as for B1
B39: VH SEQ ID NO 562 / VL SEQ ID NO 494 (antibody, IgG4, V domains shown)
VH: B1 VH
VL: B1 VL with L29V, E42Q, F83V
notes: as for B1
B40: VH SEQ ID NO 562 / VL SEQ ID NO 502 (antibody, IgG4, V domains shown)
VH: B1 VH
VL: B1 VL with L29V, E42Q, A51T
notes: as for B1
B41: VH SEQ ID NO 562 / VL SEQ ID NO 486 (antibody, IgG4, V domains shown)
VH: B1 VH
VL: B1 VL with L29V, E42Q, A84G
notes: as for B1
B42: VH SEQ ID NO 570 / VL SEQ ID NO 422 (antibody, IgG4, V domains shown)
VH: B1 VH with L89A
VL: B1 VL with L29V, H34A, E42Q, N90Q
notes: as for B1
B43: VH SEQ ID NO 562 / VL SEQ ID NO 430 (antibody, IgG4, V domains shown)
VH: B1 VH
VL: B1 VL with L29V, H34A, E42Q, A84G
notes: as for B1
B44: VH SEQ ID NO 570 / VL SEQ ID NO 350 (antibody, IgG4, V domains shown)
VH: B1 VH with L89A
VL: B1 VL with L29I, E42Q, A51T, Q100A, I106L
notes: as for B1
B45: VH SEQ ID NO 562 / VL SEQ ID NO 470 (antibody, IgG4, V domains shown)
VH: B1 VH
VL: B1 VL with L29V, E42Q
notes: as for B1

The binders below were run against T1, recombinant human activated Factor VII … (assay: BLI (Fortebio)).

Binder | Kd [nM]
B1 | 1.2
B2 | 1.9
B3 | 29
B4 | 8.8
B5 | 10
B6 | 0.99
B7 | 48
B8 | 24
B9 | 1.1
B10 | 0.92
B11 | 30
B12 | 7.7
B13 | 1.1
B14 | 11
B15 | 16
B16 | 1.5
B17 | 0.83
B18 | 210
B19 | 1.4
B20 | 21
B21 | 1.4
B22 | 21
B23 | 17

Binder | Kd [nM]
B24 | 16
B25 | 0.92
B26 | 1.1
B27 | 0.85
B28 | 22
B29 | 18
B30 | 0.55
B31 | 43
B32 | 1.3
B33 | 20
B34 | 1.1
B35 | 19
B36 | 13
B37 | 2.6
B38 | 14
B39 | 1.6
B40 | 1.1
B41 | 1.3
B42 | 2400
B43 | 7.9
B44 | 1
B45 | 1.4
